The labels stand for the following.
B6: ScaC passenger domain (residues 33–223), C-terminal TEV-6His (domain or fragment)
chain: VSNMNLDISNMGEAREGLRKDIAEVSKLLCMLEKSTASSKNLTMRLQQSDTRENEQSNHIRLLITEIESINKENDCLRQKNNQLKIKLHQLKVKLEQALARNTDLQQILPKSQAEMDNLRKQNEQLKIQLQQLQVKLQDLMSLQNKCSNLALINSVKLNYIRDIKYIALANIVIVKALASTFTEKLSKSNR
notes: source: SoluBL21 E. coli, purified (Ni-NTA, MonoQ, Superdex 200)

The target of data set [1] is T1, BICD2, full-length mouse (mouse, UniProt Q921C5 1-820).
T1 construct: also called full-length BICD2
The experiment in a line: SEC; reconstitution: BICD2 and ScaC constructs mixed in a 1:2 molar ratio, 15 min on ice, Superose 6 Increase 3.2/300 in GF150 buffer; fractions on SDS-PAGE. To be noted: both partners purified. In general terms: SEC sorts molecules by how far they enter the pores of the column.

The target in data set [2] is B6. The description is as above. Particulars: both partners purified.
Data set [3] deals with T2, GCN4-RANBP2^min (RANBP2 residues 2148–2240 fused to an N-terminal GCN4 dimerization tag) (human, UniProt P49792 2148-2240).
T2 construct: not shown: GCN4 dimerization tag, N-terminal, kept
The experiment in a line: pull-down. To be noted: both partners purified.

Data set [4] addresses T3, RAB6^Q72L (GTP-locked RAB6 mutant) (human, UniProt P20340 1-208, Q72L).
T3 construct: source: SoluBL21 E. coli, purified (Glutathione Sepharose, GST cleaved, Superose 6, with 10 μM GTP); not shown: GST, N-terminal, cleaved
The experiment in a line: pull-down. To be noted: both partners purified.

Data set [5] concerns the target B6. The experiment in a line: pull-down. To be noted: both partners purified.
Data set [6] deals with the molecule itself. The experiment in a line: SEC-MALS; 1 mg/mL, Superose 6 10/300, GF150 buffer, 0.5 ml/min.
The target in data set [7] is T1, BICD2, full-length mouse. Described as above. To be noted: both partners purified.
Data set [8] concerns the target T4, BICD2-AF488 (BICD2-SNAP labelled with SNAP-Surface Alexa Fluor 488) (mouse, UniProt Q921C5 1-820, Alexa Fluor 488 on the SNAP tag (SNAP-Surface Alexa Fluor 488)).
T4 construct: also called BICD2-488; not shown: SNAP, C-terminal, kept
The experiment in a line: single-molecule TIRF dual-colour co-migration on microtubules. Particulars: both partners purified.

T1 sequence (Q921C5 whole entry): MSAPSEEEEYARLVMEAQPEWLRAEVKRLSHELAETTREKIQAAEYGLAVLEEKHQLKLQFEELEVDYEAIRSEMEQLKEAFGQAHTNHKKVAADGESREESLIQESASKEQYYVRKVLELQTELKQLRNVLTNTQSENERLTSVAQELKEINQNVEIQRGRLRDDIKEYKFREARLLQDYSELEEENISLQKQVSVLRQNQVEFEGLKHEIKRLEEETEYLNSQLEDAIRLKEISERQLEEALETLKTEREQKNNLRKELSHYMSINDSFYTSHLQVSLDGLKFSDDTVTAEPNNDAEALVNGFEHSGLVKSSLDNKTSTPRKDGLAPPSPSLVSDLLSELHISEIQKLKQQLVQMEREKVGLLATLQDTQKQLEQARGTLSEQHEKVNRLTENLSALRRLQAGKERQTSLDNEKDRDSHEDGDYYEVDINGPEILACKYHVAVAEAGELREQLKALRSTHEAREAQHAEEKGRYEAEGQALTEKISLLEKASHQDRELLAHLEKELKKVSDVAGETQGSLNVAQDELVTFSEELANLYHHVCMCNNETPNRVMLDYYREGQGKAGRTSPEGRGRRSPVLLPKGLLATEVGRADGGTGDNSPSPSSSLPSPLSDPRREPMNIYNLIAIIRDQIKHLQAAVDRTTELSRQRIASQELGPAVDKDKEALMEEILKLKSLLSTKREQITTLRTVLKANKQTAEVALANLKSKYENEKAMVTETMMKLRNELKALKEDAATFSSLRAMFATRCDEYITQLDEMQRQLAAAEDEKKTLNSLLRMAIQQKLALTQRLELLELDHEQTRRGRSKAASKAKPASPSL
T4 sequence (Q921C5 whole entry): as above
T2 sequence (P49792 2148-2240): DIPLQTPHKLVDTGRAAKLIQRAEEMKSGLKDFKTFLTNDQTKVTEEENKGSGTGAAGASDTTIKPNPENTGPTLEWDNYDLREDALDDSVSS
T3 sequence (P20340 whole entry Q72L): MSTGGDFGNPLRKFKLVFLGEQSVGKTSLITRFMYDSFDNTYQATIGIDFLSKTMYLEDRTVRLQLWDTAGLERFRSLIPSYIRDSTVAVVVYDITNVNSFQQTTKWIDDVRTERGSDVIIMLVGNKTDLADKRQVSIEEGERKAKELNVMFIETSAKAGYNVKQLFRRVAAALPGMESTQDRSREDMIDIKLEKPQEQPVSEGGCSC

B1: ScaC^50–159 (domain or fragment)
chain: LRKDIAEVSKLLCMLEKSTASSKNLTMRLQQSDTRENEQSNHIRLLITEIESINKENDCLRQKNNQLKIKLHQLKVKLEQALARNTDLQQILPKSQAEMDNLRKQNEQLK
notes: source: SoluBL21 E. coli, purified (StrepTactin, Superdex 200)
On to B1, for which, in the data set with BICD2, full-length mouse [1], the binding result is “binds”.

B2: Strep-BICD2^711–800 (CC3 domain) (domain or fragment, mouse, UniProt Q921C5 711-800, looked up)
chain: YENEKAMVTETMMKLRNELKALKEDAATFSSLRAMFATRCDEYITQLDEMQRQLAAAEDEKKTLNSLLRMAIQQKLALTQRLELLELDHE
notes: also called CC3 of BICD2; not shown: Strep, N-terminal, kept
On to B2, for which the binding result in data set [2], in data set [3] and in data set [4] was “binds” each time.

B3: Strep-BICD2^711–800 L742A (domain or fragment, mouse, UniProt Q921C5 711-800, looked up)
chain: YENEKAMVTETMMKLRNELKALKEDAATFSSARAMFATRCDEYITQLDEMQRQLAAAEDEKKTLNSLLRMAIQQKLALTQRLELLELDHE
notes: not shown: Strep, N-terminal, kept
Regarding B3, the binding result in data set [5] was “binds”.

B4: Strep-BICD2^711–800 L786A (domain or fragment, mouse, UniProt Q921C5 711-800, looked up)
chain: YENEKAMVTETMMKLRNELKALKEDAATFSSLRAMFATRCDEYITQLDEMQRQLAAAEDEKKTLNSLLRMAIQQKAALTQRLELLELDHE
notes: as for B3
As for B4, in data set [5], the binding result was “binds”.

B5: Strep-BICD2^711–800 L742A/L786A (domain or fragment, mouse, UniProt Q921C5 711-800, looked up)
chain: YENEKAMVTETMMKLRNELKALKEDAATFSSARAMFATRCDEYITQLDEMQRQLAAAEDEKKTLNSLLRMAIQQKAALTQRLELLELDHE
notes: also called double L742A/L786A mutant; not shown: Strep, N-terminal, kept
Regarding B5, the binding result in data set [5] was “binds”.
One may read the stoichiometry N as a count of units in the complex or per binding partner. On to B6, for which the “stoichiometry N” value in data set [6] was 2; in the data set with BICD2, full-length mouse [7], 1 ScaC:BICD2 (2:2).

B7: ScaC-AF647 (ScaC-SNAP labelled with SNAP-Surface Alexa Fluor 647) (domain or fragment)
chain: VSNMNLDISNMGEAREGLRKDIAEVSKLLCMLEKSTASSKNLTMRLQQSDTRENEQSNHIRLLITEIESINKENDCLRQKNNQLKIKLHQLKVKLEQALARNTDLQQILPKSQAEMDNLRKQNEQLKIQLQQLQVKLQDLMSLQNKCSNLALINSVKLNYIRDIKYIALANIVIVKALASTFTEKLSKSNR
modifications: Alexa Fluor 647 on the SNAP tag (SNAP-Surface Alexa Fluor 647)
notes: source: SoluBL21 E. coli, purified (Ni-NTA, MonoQ, labelling, Superdex 200)
B7: in data set [8], the binding result is “binds”.
